Test results as given in IntAct's records for PubMed 19015526.

B1: Ribonucleoside-diphosphate reductase subunit M2 B (Homo sapiens), Q7LG56-1 (parent)
chain: MGDPERPEAAGLDQDERSSSDTNESEIKSNEEPLLRKSSRRFVIFPIQYPDIWKMYKQAQASFWTAEEVDLSKDLPHWNKLKADEKYFISHILAFFAASDGIVNENLVERFSQEVQVPEARCFYGFQILIENVHSEMYSLLIDTYIRDPKKREFLFNAIETMPYVKKKADWALRWIADRKSTFGERVVAFAAVEGVFFSGSFAAIFWLKKRGLMPGLTFSNELISRDEGLHCDFACLMFQYLVNKPSEERVREIIVDAVKIEQEFLTEALPVGLIGMNCILMKQYIEFVADRLLVELGFSKVFQAENPFDFMENISLEGKTNFFEKRVSEYQRFAVMAETTDNVFTLDADF

Variants of: B1
Settings: with atm_human ATM

Variant	effect of a mutation on the interaction
S72A	decreasing interaction
